Measurements reported in the domain aggregation screens of Martell et al. (2025).

Assay: soluble fraction after stress (log2 fold change); higher = more stays soluble; pooled small domains, quantitative proteomics
Conditions: stress: 75 degC
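Further: 20 min heating vs room temperature control held 20 min.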

Sequence: HMRKSLGEIVFDRMERAIKSGAYSPDERLPTELDLAAEFEVSRPVIRDALKRLRERGLIYSRQGAGSFVRA
- soluble fraction (log2): -0.813

Sequence: HMRKTIQDFLSSNKVDIAKLLTLALEKTKEDLYKNLSYNLTNKELEKLKLLIKKREQGIPFAYLS
- soluble fraction (log2): -0.348

Sequence: HMRLADHVVEKLLALVQERGLQPGQKLPAERQLAEVLGVSRTSVREAIQKLVSQGVLSARRGDGTYVQS
- soluble fraction (log2): -0.302

Sequence: HMRLANGIGTVYKLSGNRRNPYIVRKTTGWEIDEESGKAKQKYITIGYAPTRAKGLEMLMDYNKNP
- soluble fraction (log2): -0.895

Sequence: HMRLDHIFSVVERLKGVSLGAGDRLEVQKYEDLLTVYKSKNALSSEEAQTLNDILASLLKMMAKYD
- soluble fraction (log2): -1.05

Sequence: HMRLDSELVSARLHRFMGTNRKPDGEIVEKIAAILEGHPIETLDAFLQSLNGRKIKSYGFFPTVLRREIAN
- soluble fraction (log2): -0.319

Sequence: HMRLEEVSVPQRLLAAIAEEREVQIGIVDGRGGTRVLRVEPLALEGGRLRARDVESGEEFTVLIHRVLL
- soluble fraction (log2): -1.19

Sequence: HMRLLAESIARGLDPEGSGGLWAKEAGAEALKLMETLAAEAPHGGSFTAAAYRDLFESLVHQGEVREA
- soluble fraction (log2): -0.00417

Sequence: HMRLLGEPLAGRLKKDVPVVTGRSTESKAIAQFFELRWSHLPDPEARTISVASGRIDFMDVGATRFSLR
- soluble fraction (log2): 0.0725

Sequence: HMRLSDSEFESIENAIKEKLENSALTADVLVKELSFDEDKIWKVIRWLEDAEKISEDEAGTLLWKPR
- soluble fraction (log2): -0.0971

Sequence: HMRLSESLLDDIPGIGAARKRALLQSFGSVRKLRHADAEEIAAKVPGIGLNFAEKIVEALRKK
- soluble fraction (log2): 0.391

Sequence: HMRLTTTPKTARGLTTMNRIIRAAEVEFGRKGYHYTGITDIAQRAKVASGTIYLYFTDKYSLYVHLLT
- soluble fraction (log2): 0.159

Sequence: HMRLYTQDVAVLNRDVIQGEVITSDMVTTVNVHKRTVPTGALNLSEIPGNVAKFNIPASIPITASMVTK
- soluble fraction (log2): -0.0186

Sequence: HMRMLLKELLIQYEVKNDKSHVEVAKEVGVSLSTYYRWLNGESLHLKKRTIDRLSEVLHYDINQVVEES
- soluble fraction (log2): -2.52

Sequence: HMRMLSEGAQRMLRGLAVLEEASADRLLELHQGDYPGFVRSLFALESAGLFQRNGSGTWIRR
- soluble fraction (log2): -0.91

Sequence: HMRMNASERQNQIVDLLSQNGVMKIMDIADHFNVSRETIRRDLIILEDDNRIKKWFGGVISAN
- soluble fraction (log2): -0.706

Sequence: HMRMQRYYLTDMSEKGREALPGVLDEMGYAGRYTMSDNSIAINSNMIVLSKAIKRAEDIAHNE
- soluble fraction (log2): -0.089

Sequence: HMRMRPNERQKRIIELLSFRRHETIGNFANEFGVSRDTIKRDIITLQEEYPIISERGYEGGISLPDGYYI
- soluble fraction (log2): -1.08

Sequence: HMRMSLDEAKAVVLPIGEYKGRNMGEVLAIKPELIDFYASQKFNSSKYPYLKEAAQVILENQ
- soluble fraction (log2): 0.114

Sequence: HMRMSPRERKIYQFIENHPGTKSGEMAEKLGIPLPTIKRLLSDMVASKLLQKHGTGAGTNYSIEE
- soluble fraction (log2): 0.43

Sequence: HMRMSQLSRLISILTLLKSKRLLTATELAEKYDVSIRTVYRDIRKLEEAGIPVYTIEGRGYSLMDNYT
- soluble fraction (log2): -1.42

Sequence: HMRNANENTLKDLPVAVPNIHVSNIEEKKDFHLIQLEYSQEFDPREDLFNFAVNSSWVILKMTPT
- soluble fraction (log2): 0.215

Sequence: HMRNDIFDQLTEREMQILQEVAKGYRNKQIADHLFISESTVKVHMKSLLKKLQVPSRTAATVLYLERYG
- soluble fraction (log2): -1.55

Sequence: HMRNEFEAHSDGTRIQLNDRSKATFSVYDVQGRLIHSFQDFSGSSFNIEPKNQLLIITRETAEGVSVKKLV
- soluble fraction (log2): 0.34

Sequence: HMRNKTVKEVLDYIEKNSEFIFFYYSKAIDTKRIVSLSVKDQPITVILDQLFKNTDVLYEIKDRQISLKRE
- soluble fraction (log2): 0.1

Sequence: HMRNTETMKEIQAFVEDYFFEYHQSPSMQKVADAIGTSKSTAYYYVMEMARNGMLHYDGKTIETPHTQKS
- soluble fraction (log2): -0.82

Sequence: HMRPDDPYLVIGASREMGDEELKRHYRRLVAETHPDRGIARGLPAEAIAIATRRLAAINAAWDAIERERGL
- soluble fraction (log2): 0.000257

Sequence: HMRPDSFEAGEAEAGSRLDRLLAARLGIPRNQVQQWIGGGRVTVDAEPVRASLVVRAGMRIAWDPPPPP
- soluble fraction (log2): -1.56

Sequence: HMRPEKLVLKALRGAHGPLSAEEVAGRIEADGGAGLDVARVEHVLGQLERSGTVAALGGGKYLALR
- soluble fraction (log2): 0.692

Sequence: HMRPHDDHLREQLLGIATETIARTGVEGLSLRTLATDAGTSTSAVYQLFGSRAALLDAVYLRVLE
- soluble fraction (log2): -1.47

Sequence: HMRPLISQTLRIDRGEGDIAGPLGVLAKEYPHLSMGSYPFQKDGIYGAHVVIRGSDPGMVEAAMDKLKAAF
- soluble fraction (log2): 0.338

Sequence: HMRPLTPLEKLTPDADGKYYHIVQSGETLSWIAKLYETTAEKLQAWNNLFSSDIFPNQKLLLQVTPP
- soluble fraction (log2): 0.134

Sequence: HMRPPLEWGTHGEITTRTVASGYVRASARVRLWDGELQRMTATASTASDARASLQHRIAERLRFSEL
- soluble fraction (log2): -1.45

Sequence: HMRPPLRAAIIDHLARDWHTVAELARLLPASGAHVSRLVVELRAVGAVDERISHPDWPGNRPTEYRLRRA
- soluble fraction (log2): -3.57

Sequence: HMRPTHYSGPSVIAMINNRVWFSDGSRLAPGEHHDDLEVVGLSPPWSAKVRWQGVEFDVGLFE
- soluble fraction (log2): -2.35

Sequence: HMRQGHLDLLRQIHALPPSTREVVYLRAFGGLSFREIGDVLGRTETWARVTFYRGKEALRKG
- soluble fraction (log2): -0.106

Sequence: HMRQHHMIISTKLGTPKEELAKLVSGFEDQGLRVSVITGTDYTVIGLVGDTTHLDEKRIRANPYVDNVQRV
- soluble fraction (log2): -0.813

Sequence: HMRQIMIIVLKSTATKEDSLLFKNKLEQEYGVKVNEWTGVESTVLGLIGDTTKIDIDYISAQDIVESVKRV
- soluble fraction (log2): -2.27

Sequence: HMRQKTTFFATESFELPNGEKVEEGQIFRLNDGAFNIAEQQGITRFLTSEANYGRMIAANAEVEKAKLDA
- soluble fraction (log2): 0.605

Sequence: HMRQLISIYNNTIGADEIDQMRNILSNSGYKEGVDFAVQTADKKSVILVRRDLAGMIQEQLSGEGLPS
- soluble fraction (log2): -0.119

Sequence: HMRQNPESFLNHKVKKNESLESLTKKYELTENEIIFYNPLIQKIGLKKRMILKIPIYNNQNLVTKSVD
- soluble fraction (log2): -0.15

Sequence: HMRQPRGQRVTVREASSLLPFLFAHLTDRSRSAVKSLLRHGQIWVNGRVTTHFDMPLRPGDTVLISHERG
- soluble fraction (log2): -1.33

Sequence: HMRQSQEVSGGERYRRLTAYLDTHPFITRKEYSGITGLLKNKALNDLNLLVNKGYLEAMGRGSHKVYVRPM
- soluble fraction (log2): -0.86

Sequence: HMRQSSLRTRELLIDAARQLFARFGVEKTTMNDIAEASKRGRRTVYMYFNSKSDVFYAVVGRE
- soluble fraction (log2): -0.0881

Sequence: HMRQVFPNPSSSQIKLASSRIGQAFSILDQQGRVVLSGKVSEEAVIALENLAKGIYVLKIGSWSETILK
- soluble fraction (log2): -2.89

Sequence: HMRRATLERLANNTAEKAIRYKRSLALEPMNPQERRIIHAALQEVEGVSTHSVGTEPNRKVIVVPDGV
- soluble fraction (log2): -0.329

Sequence: HMRRFEFSDGSSNKFWQITRDGTSLTVTFGKIGTAGQTQLKELATEAAAIAEHDKLVKEKTKKGYAEVG
- soluble fraction (log2): -0.174

Sequence: HMRRGFGYVRKLPSGRWQASFVGPDLARHSAPHTFETKGDAEGWLGRRQADVVAGEWRPPVP
- soluble fraction (log2): -0.00612

Sequence: HMRRISLEDWQLIESLIRRDWSPEQISLWLKKYKKIRVSHEWIYQYILKDKSKAGDLHTHLRSR
- soluble fraction (log2): 0.00689

Sequence: HMRRKNQVQSSYQKRENGTYTVRFFLSDDMGSIMDLQLMATREDMARALRERFLKDPEKIYGQIMQMLLR
- soluble fraction (log2): -1.23

Sequence: HMRRLGTTEIAGILRREISQGILIAKERLPSERSLADTYGVARGTVRQALNLLAREGLVQIRRSSGAYVTF
- soluble fraction (log2): -0.458

Sequence: HMRRMAYLVGQRGLAMGDFISGTGQVRIGDTVWRAEAVEGELVRTGDTVVVEGAKMTTAIVRRVM
- soluble fraction (log2): -1.81

Sequence: HMRRRKPLVSYEYGTRVYAPSEGEPRYRVVATDADGQRVFAKFSSEEAARHRAREIEGRLATS
- soluble fraction (log2): -0.26

Sequence: HMRRSSQQLTLTEVSTIKEMVTSEEYRHVPTGTLALLAQRLRKVFASSSTWYRLVRIYKWRRPRGRIH
- soluble fraction (log2): -0.329

Sequence: HMRRSVYQANVLDAIKHLVDQNELATTKAIAEYIGDDYQGNVSRAIRELLADRKIKKLPKVGVLQPYEA
- soluble fraction (log2): -0.442
